This is an account of results in US20210292423A1 (published 2021).

Experiment [1] concerns the target T1, Macaca fascicularis CD123 Fc-fusion protein (Macaca fascicularis).
T1 construct: also called cyno CD123-Fc
As to the kind of experiment: SPR Proteon XPR36, rat IgG captured, CD123-Fc analyte. As to the method: (§1) Screening of anti-CD123 rat IgGs for binding affinities to human CD123 and cross-reactivities to cyno CD123 was performed with hybridoma supernatants using a Proteon XPR36 (Biorad) in a one-shot kinetics approach. A capture assay was established using a goat anti-rat IgG (112-005-071, Jackson Immuno Research). The capture antibody was coated on GLC chips (176-5011, Biorad) to approx. 8000 RU in the vertical direction using the amine coupling kit (176-2410, Biorad). […] Binding kinetics with human and cyno CD123-Fc fusion protein was measured at 100 μl/min in the horizontal direction with 120 sec. and 600 sec. for association and dissociation, respectively. The CD123-Fc proteins were used in twofold dilutions from 6 nM to 100 nM. PBSET buffer (176-2730, Biorad) was used as assay buffer. Regeneration was achieved by injection of 10 mM Glycine buffer pH 1.5 for 18 sec at 30 μl/min. Data processing and analysis was performed using ProteonManager software v3.0. Fitting of the sensorgrams was done with a 1:1 Langmuir model.

Experiment [2] addresses T2, human CD123 (IL3RA) on cells (human, UniProt P26951 19-378).
T2 construct: also called CD123 transfected HEK293; THP-1
As to the kind of experiment: flow cytometry, CD123 transfected HEK293, hybridoma supernatant. Here is the method:
Cells were resuspended in 200 μl Stain Buffer with FBS per well and were measured using the MACSQuant (Miltenyi Biotec) or LSRII (BD) flow cytometer. Further data analyses were performed using the FlowJo software (Tree Star, Inc.). Read out was percentage of cells positive for antibody binding. Cells treated only with the secondary but no primary antibody were used to set the gates. Curves were calculated by XLfit (Algorithm 205).

For experiment [3], the target named is T3, human CD3δ expressed alone on HEK293F cells (human, UniProt P04234 22-171).
T3 construct: entry includes the signal peptide; also called huCD3δ
As to the kind of experiment: flow cytometry, HEK293F transfected with huCD3δ. Here is the method:
To analyze binding of antibodies to human CD3ε and human CD3δ expressed on the surface of cells, HEK293F cells were transfected with both constructs either alone or in co-transfection and signals were measured by flow cytometry. For transfection procedure FuGENE HD Transfection Reagent (Promega, #E2311) was used according to manufacturer's protocol.
Cells were incubated on a shaker at 37° C. and 5% CO2. At day one to three after transfection cells were harvested and binding of antibodies was analyzed by flow cytometry.
Antibodies for staining were seeded at 1 μg in 50 μl per well Stain Buffer with FBS (BD Pharmingen) in 96-well U-bottom suspension culture plates (Greiner bio-one). Harvested transfected cells were resuspended in Stain Buffer with FBS and were added at 50 μl per well to the antibodies. Cells were incubated at 4° C. in the dark for 30 min and were washed twice. 0.5 μg secondary antibody Goat F(ab′)2 Anti-Human IgG-FITC (Beckman Coulter, #732598) or Goat F(ab′)2 Anti-Human kappa-PE (Southern Biotech, #206209), respectively, in combination with 0.5 μg 7-AAD per well was added in 100 μl Stain Buffer with FBS. Cells were incubated at 4° C. in the dark for 15 min and were washed twice. For measurement, cells were resuspended in 200 μl Stain Buffer with FBS. Cells were measured using the MACSQuant (Miltenyi Biotec) or LSRII (BD) flow cytometer, respectively. Further data analyses were performed using the FlowJo software (Tree Star, Inc.).

The target in experiment [4] is T4, human CD123 Strep-II tagged Fc-fusion protein (human).
T4 construct: also called human CD123-Fc; recombinant CD123
The experiment can be described thus: SPR Proteon XPR36, rat IgG captured, CD123-Fc analyte. Here is the method: as §1

T2 sequence (P26951 19-378): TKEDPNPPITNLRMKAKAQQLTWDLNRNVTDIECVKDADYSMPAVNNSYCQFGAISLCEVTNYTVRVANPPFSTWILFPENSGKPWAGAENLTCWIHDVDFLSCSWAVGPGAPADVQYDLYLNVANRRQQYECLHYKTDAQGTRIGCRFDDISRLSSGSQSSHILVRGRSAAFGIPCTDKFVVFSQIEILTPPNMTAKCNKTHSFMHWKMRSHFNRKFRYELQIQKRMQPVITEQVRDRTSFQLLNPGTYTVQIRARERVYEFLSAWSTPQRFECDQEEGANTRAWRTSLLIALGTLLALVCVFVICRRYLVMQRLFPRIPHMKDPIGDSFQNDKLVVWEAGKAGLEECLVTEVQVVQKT
T4 sequence (chain, as listed by the source limits assumed): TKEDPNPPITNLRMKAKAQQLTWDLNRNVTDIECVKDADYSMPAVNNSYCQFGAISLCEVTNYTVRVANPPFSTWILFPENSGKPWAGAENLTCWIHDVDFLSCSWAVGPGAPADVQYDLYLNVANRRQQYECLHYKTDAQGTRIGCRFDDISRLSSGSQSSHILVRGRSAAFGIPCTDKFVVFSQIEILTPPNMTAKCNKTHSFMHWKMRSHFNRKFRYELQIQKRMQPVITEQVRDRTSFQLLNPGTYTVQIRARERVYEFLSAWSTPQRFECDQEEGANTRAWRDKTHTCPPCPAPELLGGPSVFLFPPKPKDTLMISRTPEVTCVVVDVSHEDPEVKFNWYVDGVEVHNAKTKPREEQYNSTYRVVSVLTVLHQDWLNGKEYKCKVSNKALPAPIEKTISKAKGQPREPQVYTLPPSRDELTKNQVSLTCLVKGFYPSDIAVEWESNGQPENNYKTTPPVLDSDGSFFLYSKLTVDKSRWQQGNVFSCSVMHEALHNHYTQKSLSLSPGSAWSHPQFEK
T1 sequence (chain, as listed by the source limits assumed): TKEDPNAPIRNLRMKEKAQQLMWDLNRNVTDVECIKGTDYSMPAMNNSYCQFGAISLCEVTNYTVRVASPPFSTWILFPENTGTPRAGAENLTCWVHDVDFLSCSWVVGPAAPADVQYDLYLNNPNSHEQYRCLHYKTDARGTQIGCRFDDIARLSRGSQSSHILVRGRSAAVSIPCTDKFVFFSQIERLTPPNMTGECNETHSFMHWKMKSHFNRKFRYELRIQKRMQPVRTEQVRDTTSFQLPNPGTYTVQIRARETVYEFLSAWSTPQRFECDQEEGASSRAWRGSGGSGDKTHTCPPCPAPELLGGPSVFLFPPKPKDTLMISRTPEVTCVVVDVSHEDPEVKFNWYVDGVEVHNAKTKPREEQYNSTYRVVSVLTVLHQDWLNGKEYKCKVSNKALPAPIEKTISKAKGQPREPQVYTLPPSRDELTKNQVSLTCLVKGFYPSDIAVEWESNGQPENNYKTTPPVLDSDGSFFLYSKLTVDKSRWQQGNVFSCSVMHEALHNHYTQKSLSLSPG
T3 sequence (P04234 22-171 limits assumed, stated change not applied): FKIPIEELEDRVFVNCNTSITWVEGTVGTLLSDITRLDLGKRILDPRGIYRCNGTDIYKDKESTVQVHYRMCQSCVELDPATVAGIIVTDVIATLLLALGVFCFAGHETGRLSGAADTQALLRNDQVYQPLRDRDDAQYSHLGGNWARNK

B1: 3B10-E6 anti-CD123 rat IgG (hybridoma supernatant) (antibody, V domains shown)
VH: QVQLQQSGPELRRPGSSVRLSCKASGYRIKDFLIHWIKNRPEHGLEWIGWIDPEDGETKYAQKFQTKATLTADTSSNTAYMQLSSLTSEDTATYFCARWGDVYYGLMRGHVMDAWGQGTSVTVSS
VL: DVLMTQTPVSLPVSLGGQVSISCRSSQSLVHSDGDTYLHWYLQKPGQSPQLLIYRVSNRFSGVPDRFSGSGSGTDFTLKISRVEPEDLGLYYCLQTTHFPPWTFGGGTKLEMK
notes: rat IgG; also called BFX - 3B10
B1: in experiment [1], the affinity, expressed as Kd, was 270 pM. For the same molecule, the EC50 in experiment [2] is 2 ng/mL.

B2: 5B1-G2 Fab (Fab, V domains shown)
VH: EVQVVETGGSLVQPGKSLKLTCATSGFSFSNAWMHWVRQSPEKQLEWVAQIKDKANNYATYYAESVKGRFTISRDDSKGSIYLQMNSLKEEDTAVYYCRGLYYGLFPSDYWGQGVMVTVSS
VL: DVVMTQTPVSLSVSLGGQVSISCRSSQSLVHNNGNTYLSWYLLKPGQSPQLLIYKVSNRFSGISDRFSGGGSGTDFTLKISRLEPDDLGIYYCGQGTQYPFTFGSGTKLEIK
For the molecule B2, the binding result in experiment [3] was “no binding (tested: <20% of binding of huCD3e + huCD3d)”.

B3: 6C10-C4 anti-CD123 rat IgG (hybridoma supernatant) (antibody, V domains shown)
VH: EVKLQESGPSLVQPSETLSLTCTVSGFSLTSYSVHWVRQHSGKSLEWMGRMWNDGDTSYNSAFTSRLSISRDTSKGQVFLKMNSLQTEDTGTYYCARGHRTPFDYWGQGVMVTVSS
VL: DIVMTQSPSSLAVSAGETVTINCKSSQSFLSSGDERNYVAWYQHKPGQSPKLLIYWASTRHSGVPDRFIGSGSGTDFTLTISSVQAEDLAIYYCQQYYDTPLTFGSGTKLEIK
notes: rat IgG; also called BFX - 6C10
In turn, B3 gave a dissociation constant (Kd) in experiment [1] of 790 pM. Moreover, in experiment [4], the Kd stood at 750 pM, the off-rate constant (koff) is 0.00014 s⁻¹ and the on-rate (kon) is 180000 M⁻¹ s⁻¹. In experiment [2], this molecule displayed an EC50 of 6.1 ng/mL.

B4: 6B10-E4 anti-CD123 rat IgG (hybridoma supernatant) (antibody, V domains shown)
VH: EVQLVESGGGLVQPGRSLKLSCAASGFTFSHYNMAWVRQAPKKGLEWVATITYDDHSTYYRDSVKGRFTISRDTAKSTLYLQMDSLRSEDTATYYCARLVNYAFAYWGQGTLVTVSS
VL: NIVMTQSPKSMSISVGDRVTMNCKASQTVGNNIAWYQQKPGLSPQLLIDYASNRYTGVPNRFTGGGYGTDFILTINSVQAEDAAFYYCQRMYNSPTFGGGTKLELK
notes: rat IgG; also called BFX - 6B10
The molecule B4 returned an equilibrium dissociation constant (Kd) in experiment [1] of 100 pM. In experiment [4], this molecule registered a Kd of 150 pM, a koff of 1.5e-05 s⁻¹ and a kon of 230000 M⁻¹ s⁻¹. In experiment [2], it took 5 ng/mL to reach a half-maximal effect (EC50).

B5: 3E3-D3 anti-CD123 rat IgG (hybridoma supernatant) (antibody, V domains shown)
VH: QVQLQESGPGLVQPSQTLSLTCTVSGFSLTTYDVHWVRQPPGKGLEWMGRIQNGGITDYNSALKSRLIISRDTSKSQVFLKMNSVQTEDTAMYFCAKTGSYFYAFDHWGQGTLVTVSS
VL: QFVLTQPNSVSTNLGSTVKLSCKRNTGNIGSNYVNWYQQHEGRSPTTMIYRDDKRPDGVPDRFSGSIDRSSNSALLTINNVQTEDEADYFCQSYSSGINIIFGGGTKLTVL
notes: rat IgG; also called BFX - 3E3
The molecule B5 came in with a dissociation constant Kd in experiment [1] of 120 pM. In experiment [4], this molecule displayed an equilibrium dissociation constant (Kd) of 400 pM, a koff of 6.4e-05 s⁻¹ and an on-rate constant (kon) of 160000 M⁻¹ s⁻¹. This molecule returned an EC50 in experiment [2] of 2 ng/mL.

B6: 12D2-E5 Fab (Fab, V domains shown)
VH: EVKLVESGGGLVQPGRSLRLSCAASGFNFYAYWMGWVRQAPGKGLEWIGEIKKDGTTINYTPSLKDRFTISRDNAQNTLYLQMTKLGSEDTALYYCAREERDGYFDYWGQGVMVTVSS
VL: QFVLTQPNSVSTNLGSTVKLSCKRSTGNIGSNYVNWYQQHEGRSPTTMIYRDDKRPDGVPDRFSGSIDRSSNSALLTINNVQTEDEADYFCQSYSSGIVFGGGTKLTVL
In the case of B6, the binding result in experiment [3] is on record as “no binding (tested: <20% of binding of huCD3e + huCD3d)”.

B7: 2F8-D6 anti-CD123 rat IgG (hybridoma supernatant) (antibody, V domains shown)
VH: QVQLKESGPGLVQPSQTLSLTCTVSGFSLTSYGVSWVRQPPGKGLEWIATISSAGSTYYDLVLKSRLSITRDTSKSQVFLKVHSLQTEDTAIYLCARDAPVFNYGSYNAMDSWGQGTSVTVSS
VL: DIQMTQSPSFLSATVGDRVTINCKASQNINKYLNWYQQKLGEAPKRLIYNTNSLQTGIPSRFSGSGSGTDYTLTISSLQPEDVATYFCLQHKSGLTFGSGTKLEIK
notes: rat IgG; also called BFX - 2F8
On to B7, for which the Kd in experiment [1] was 510 pM. In experiment [4], this molecule returned a Kd of 530 pM, a koff of 6.6e-05 s⁻¹ and a kon of 130000 M⁻¹ s⁻¹. For the same molecule, in experiment [2], the concentration giving a half-maximal response (EC50) is 3.4 ng/mL.

B8: 2B8-F3 anti-CD123 rat IgG (hybridoma supernatant) (antibody, V domains shown)
VH: EVQLVESGGGLVQPGRSLKLSCAASGFTFSDYNMAWVRQAPKKGLEWVATILYDGGRTYYRGSVKGRFTISRDNAKSTLYLRMDSLRSEDTATYYCATHSRGTDYFDYWGQGVMVTVSS
VL: EIVLTQSPTSMTASPGEQVTITCRASSSINYMHWYQQKPGASPRPWIYETSKLASGVPDRFSGSASGTSYSLTINNMEAEDAATYYCQQWNYPSWTFGGGTKLELK
notes: rat IgG; also called BFX - 2B8
In turn, B8 returned an equilibrium dissociation constant (Kd) in experiment [1] of 770 pM. For the same molecule, in experiment [4], the dissociation constant (Kd) was determined as 18 pM, the koff turned out to be 1.2e-05 s⁻¹ and the on-rate constant (kon) was found to be 660000 M⁻¹ s⁻¹. In addition, the EC50 in experiment [2] is 5.5 ng/mL.

B9: 5A5-B4 anti-CD123 rat IgG (hybridoma supernatant) (antibody, V domains shown)
VH: QIQIVQSGSDVTSTCNGCGTCYFSGFSLSTTGICVSWIRQPSGKGQEWLADFCWDDGKGYNPSLKNRLSISKDTSNNQVFLKITSVDTADTATYYCARRRVYYGIYFDYWGQGVMVTVSS
VL: DIVMTQSPALAVSPGERVSISCRASNSVSTRMHWYQQKPGQQPKLLIYGASNLESGVPARFSGSGSGTDFTLTIDPVEADDIATYFCQQSWNDPLTFGSGTKLEIK
notes: rat IgG; also called BFX - 5A5
In turn, B9 returned a dissociation constant (Kd) in experiment [1] of 50 pM. In experiment [4], the Kd came out at 1100 pM, the koff was 0.00012 s⁻¹ and the kon is 130000 M⁻¹ s⁻¹. Moreover, the half-maximal effective concentration (EC50) in experiment [2] amounted to 10.1 ng/mL.

B10: 1E1-G5 anti-CD123 rat IgG (hybridoma supernatant) (antibody, V domains shown)
VH: QVQLQESGPTLVKPGDSVKMSCKAFGYTFTDHIIHWVKQSHGKSLEWIGYINPYSGGTNYNEKFKSKATLTVDKSSSTAYMEFSRLTSEDSAICYCALNYGSYYAMDAWGQGTSVTVSS
VL: DIQMTQSPASLSASLGQTVTIECRPSEDIYSNLAWFQQKPGSSPQLLIYDANNLADGVPSRFSGSGSGTQYSLKINSLQSEDVASYFCQQYNKYPYTFGTGTKLELK
notes: rat IgG; also called BFX - 1E1
In the case of B10, binding in experiment [1] was put at a Kd of 720 pM. In addition, in experiment [4], the Kd is 230 pM, the off-rate (koff) amounted to 0.00011 s⁻¹ and the association rate constant (kon) turned out to be 460000 M⁻¹ s⁻¹. In experiment [2], this molecule registered a concentration giving a half-maximal response (EC50) of 2.2 ng/mL.

B11: 6D6-B8 anti-CD123 rat IgG (hybridoma supernatant) (antibody, V domains shown)
VH: QVQLQESGPTLVKPGDSVKMSCKASAYTFTDNIIHWVKQSHGKSLDWIGYINPYSGGTNYNGWFRSKATLTVDKSSSTAYMEFSRLTSDDSAIYYCALNYGSYYAMDAWGQGTSVTVSS
VL: DIQMTQSPASLSASLGETVTIDCRPSEDIFNNLAWYQQKPGNSPQLLIYDANSLADGVPSRFSGSGSGTQYSLMIIRLQSEDVASYFCHQYNIYPYTFGAGTKLELK
notes: rat IgG; also called BFX - 6D6
B11: in experiment [2], the EC50 was 0.9 ng/mL.

B12: 8B11-B7 anti-CD123 rat IgG (hybridoma supernatant) (antibody, V domains shown)
VH: QVQLQESGPTLVNPGDSVKMSCKASGYTFTDHIIHWVKQSHGKSLEWIGYINPYSGGANYNGKFKSKATLTIDKSSSTAYMEFSRLTSGDSAIYYCALNYGSYYAMDAWGQGTSVTVSS
VL: DIQMTQSPASLSASLGETVTIECRTSKDIYSNLAWFQQEPGNSPQLLIYDASNLADGVPSRFSGSGSGTQYSLQINNLQSEDVASYFCHQYNNYPYTFGTGTKLELK
notes: rat IgG; also called BFX - 8B11
In experiment [1], B12 displayed a Kd of 100 pM. In experiment [4], this molecule gave a dissociation constant (Kd) of 10 pM, a koff of 6.2e-06 s⁻¹ and an on-rate (kon) of 470000 M⁻¹ s⁻¹. The same molecule displayed an EC50 in experiment [2] of 0.4 ng/mL.
